For assay [1], the target named is iota carbonic anhydrase from Thalassiosira pseudonana (tpι-CA), full-length four-domain recombinant protein (Thalassiosira pseudonana). Nature of the assay: SEC-SAXS; SWING beamline (SOLEIL), Agilent Bio SEC-5 500 Å column, 15 °C; molecular mass from SAXS-MoW.
The target is the same in assay [2]. As to the kind of experiment: SEC; Superdex Increase S200 10 x 300 at 4 °C, samples loaded at 50 µM to 200 µM; Benzonase treatment where mentioned.
The target is the same in assay [3]. Nature of the assay: cross-linking; 0.01% glutaraldehyde, 20 mM Na2HPO4 pH 8.0, 10 to 15 min at room temperature, then SDS-PAGE and Western blot.
Assay [4] has the same target. As to the kind of experiment: native MS; ESI-MS under non-denaturing conditions, 500 mM ammonium acetate pH 8, 8 µM protein, Q-ToF (Synapt G1), source 20 °C.
Assay [5] has as its target tpι-CA domain variant ∆1 (composed of domain 1 only) (Thalassiosira pseudonana). Nature of the assay: DOSY-NMR; 30 to 80 µM protein, 27 mM Tris, 45 mM NaCl, 10% D2O, pH 8, 298 K, 600 MHz; experimental Dt and Rh compared with HYDROPRO values of the models.
The target in assay [6] is tpι-CA domain variant ∆1-2 (composed of domains 1 and 2) (Thalassiosira pseudonana). The description is as above.

Stoichiometry N data for three substances are collected here from article PMC8395977.

As for “iota carbonic anhydrase from Thalassiosira pseudonana (tpι-CA), full-length four-domain recombinant protein (enzyme)”, the stoichiometry N in assay [1], in assay [2], in assay [3] and in assay [4] was 4 in each case.

On to “tpι-CA domain variant ∆1 (composed of domain 1 only) (domain or fragment)”, for which the stoichiometry N in assay [5] worked out at 2.

In the case of “tpι-CA domain variant ∆1-2 (composed of domains 1 and 2) (domain or fragment)”, the stoichiometry N in assay [6] was found to be 4.
